Molecular target: T1, ALK2-Fc, Q04771
T1 chain: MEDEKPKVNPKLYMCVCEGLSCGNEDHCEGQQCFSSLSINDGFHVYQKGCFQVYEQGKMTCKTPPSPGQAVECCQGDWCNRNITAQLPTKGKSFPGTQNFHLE
Experiment: SPR
Conditions: ligand; chains chain; remark: other sources report otherwise

B1: BMP9 GF-domain (bone morphogenetic protein 9 growth factor domain), Q9UK05 320-429 (protein)
chain: SAGAGSHCQKTSLRVNFEDIGWDSWIIAPKEYEAYECKGGCFFPLADDVTPTKHAIVQTLVHLKFPTKVGKACCVPTKLSPISVLYKDDMGVPTLKYHYEGMSVAECGCR
Kd: 83 nM
